Data from the nanobody polyreactivity screen of Harvey et al. (2022).

Assay: yeast display, Sf9 membrane polyspecificity reagent, FACS + sequencing; frameworks hold sequencing errors
In short: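 After 36–48 hours of galactose induction, yeast (Saccharomyces cerevisiae BJ5465) displaying a synthetic nanobody library were stained at 4 °C for 1 hour with 10% biotinylated, detergent-solubilized Sf9 membrane reagent. Streptavidin microbeads enriched the stained cells before FACS sorting into low and high (top ~1%) gates on anti-HA and streptavidin fluorescence. Each clone's polyreactivity label reflects its gate of origin.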

Sequence	polyreactivity (PSR sort gate)
QVQLVESGGGLVQAGGTLRLSCAASGLIFDANAMGWYRQAPGTERELVAAITGSGGRTYYADSVKGRFTISRDIAKHTVYLQMNSLKPEDTAVYYCAASSKRKYLYNYWGQGTQVTVSS	high polyreactivity
QVPLVESGGGLVQAGGSLRLSCAASGFTFFSHAMGWYSQAPGKDRELVAAITTNGGSTYYADSVKGRFTISRDNAKNTVYVQITSLKPEDTAVYYCAADYSLPWSWLYEYWGQGTQVTVSS	low polyreactivity
QVQLEESGGGLVQAGGSLRLSCAASGFTFERNAMGWYRQAPGKERELVAAISWSGGSTYYADSVKGRFTISRDNAKNTVYLQMNSLKPEDTAVYYCAAYQWGYWYGYRMDYWGQGTQVTVSS	high polyreactivity
QVQLVEAGGGLVQAGGSLRLSCAASGIIFGFYAMGWYRQAPGKERELVAAITNDGGNTNYADSVKGRFTISRDNAKNTVYLQMNSLKPEDTAVYYCNADRTQDRTPYTYATFDYWGQGTQVTVSS	low polyreactivity
QVQLVESGGGLVQAGGSLRLSCAASGSTFAQNAMGWYILAPGKERELVAAISRRGTITNYADSVKGRFTISRDNEKITVYLQMYSLKPEDTAVYYCATRSWLLGIQGGYWGQGTQVTVSS	high polyreactivity
QVQLVESGGGLVQAGGSLRLICAASGSTFKRYAMGWYRQAPGKERELVAAISLSSGSTYYADSVKGRFTISRDNAKNTVYLQMNSLKPEDTAVYYCNAAKTYPDVYEYDYWGQGTQVTVSS	high polyreactivity
QVQLVESGGGLVQAGGSLSLSCAASGSIFGRNTMGWYRQAPGKERELVAAITLRGGSTYYADSVKGRFTISRDNAKKTVYLQMNSLKPEDTSDYYCATDGWKQSAYDYWGQGTQVTVSS	low polyreactivity
QDQLVESGGGLVQAGGSLRISCAASGRIFDYNAMGWYRQAPGKERELVAAITGGGNTTYADSVKGRFTISRDNAKNTVYLQMNSLKPEDTAVYYCAADVVSVYRLSYKPLGYYWGQGTQVTVSS	low polyreactivity
QVQLVESGGGLVQAGGSLRLSCAASGSIFRYYVMGWYRQAPGKERELVATISRSGGRTYYADSVKGRFTISRDYAKNTVYLQMNSLKPEDTAVYYCARTYGGYPTTYDYWGQGTQVTVSS	high polyreactivity
QVQLVESGGGLVQAGGSLRLSCAASGRIFALYAMGWYRQAPGKERELVAAITWRGGRTRYADSVKGRFTISRDNAKNTVYLQMNSLKPEDTAVYYCNKRLFASRYDYWGQGTQVTVSS	high polyreactivity
QVQLVESGGGLVQAGGSLRLSCAASGSTFTKYAMGWYRQAPGQERELVAAITASGGNTYYADSVKGRFTISRDNAKNTVYLQMNSLKPEDTAVYSCAAVTGLFYHPFYKYNYWGQGTQVTVSS	high polyreactivity
QVQLVESGGGLVQAGGSLRLSCAASGRTFLYNALGWYRQAPGKERELVAAISWSGGSTYYADSVKGRFTISRDNAKNTVYLQMNSLKPEDTAVYYCAATGRRSGFFYWGQCTQVTVSS	high polyreactivity
QVQLVESGGGLVQAGGSLRLSCAASGSTFFYYAMGWYRQAPGKERELVAGITSGASTTYADSVKGRFTISRDNAKNNVYLQMNSLKPEDTAVYYCAADHVESSWSDYDYWGQGTQVTVSS	low polyreactivity
QVQLVESGGGLVQAGRSLRLSCAASGRTFRGYAMGWYRQAPGKERELVAAITWRGGSTYYADSVKGRFTISRDNGKNTVYLLMNSLKPEDCAVYYCNARQWPLAYEYWGLGTQVTVSS	high polyreactivity
QVQLVESGGGLVHAGGSLRLSCAASGRTFAYNAMGWYRQAPGKERELVAAITRSTGNTYYADSVKGRFTISRDNAKNTVYLQMNSLKPEDTAVYYCAAAYAYWRKYDYWGQGTQVTVSS	high polyreactivity
QVQLVESGGGLVQAGGSLRLSCAASGSIFAHYTMGWYRQAPGKERELVASISYRATRTHYADSVKGRFTISRDNAKNTVYLQMNSLKPEDTAVYYCNKGGYPGLQWGNYPPYRSKDDYWGQGTQVTVSS	high polyreactivity

Sequence	polyreactivity (PSR sort gate)
QVQLVESGGGLVQAGGSLRLSCAASGRIFRVYTMGWYRPAPGKESELVAAISRGGSTNYADSVKGRFTISRDNAKNTVYLQMNSLKPEDTAVYYCAARYPNLRRRWYYYWGQGTQVTVSS	high polyreactivity
QVQLVESGGGLVQSGGSLRLSCAASGRTFYNNAMGWYRQAPGKERELVATINNRGGTTYYADSVKGRFTISRDNAKNTVYLQMNSLKPEDTAVYYCANSAQRYSYRYYYWGQGTQVTVSS	high polyreactivity
QVQLVESGGGLVQAGGSLRLSCAASGSIFRANAMGWYRQAPGKERELVAAISYSGGSTYYADSVKGRFTISRDNAKNTVYLQMNTLKPEDTAVYYCAAEFLYASVYYSYWGQGTQVTVSS	high polyreactivity
QVQLVESGGGLVQSGGSLRLSCAASGRIFRAYAMGWYIQAPGQERELVADITSGSGSTYYADSVKGRFTISRDYANNTVYLHMNSLKTEDTAVYYCAAYVLIRVWEYYYWGQGTQVNVSS	low polyreactivity
QVQLVESGGGLVQAGGSLRLSCAASGRIFGSYAMGWYIQAPGTERELVAAINRRGGSTFYADSVKGRFTISRDNAKNSVYLQMNSLKPEDTAVYYCARRGYRQSGDYWGQGTQVTLSS	low polyreactivity
QVQLVESGGGLVQAGGSLRLSCAASGRIYKSYAMGWYRQAPGKERELVAAIRSGGSTYYADSVKGRFTISRDNAKNTVYLQMKSLKPEDTAVYYCAADRYSYGSNGYPRFEYYYWGQGTQVTVSS	high polyreactivity
QVQLVESGGGLVQAGGSLRLSCAASGRTFYTYAMGWYRQAPGKERELVAAISSDGSTYYADSVKGRFTISRDNAKNTVYLQMNSLKPEDTAVYYCAADYSPWYWGYTYYYWGQGTQVTVSS	high polyreactivity
QVQLVESGGRLVQAGGSLRLSCAPSGFIFGDNGIGGSRQSPGKEMELVAGINRRSGTYYADSVKGRFTISRDNAKNTVYLLMNSLKREDTAVYYCAARLDAYQSGRYYYWGQGTQVTLSS	high polyreactivity
QVQLVESGGGLVQAGGSLRLSCAASGGTFLPNAMGWYRQAPWKERELVAAITSGGRTNYADSVKGRFTISRDNAKNTVYFQMNSLKPEDTAVYYCAARVRGYPTRPIPYYYWGQGTQVTVSS	high polyreactivity
QVQLVESGGGLVQAGGSLRLSCADSGRTFRANAMGWYRQAPGKERELVAAITSTGDRTYYADSVKGRFTISRDNAKNTVYLQMNSLKPEDTAVYYGNAVYDLYHYWKFYYWGQGTQVTVSS	low polyreactivity
QVQLVESGGGLVQAGGSLRLSCADSGSIFGVYTRGWYSQAPGKERELVAAISGSGGSTYYADSVMGRFTISRDNAKNTVYFQMNSLIPEDTGVDYCATRFPNIPPYDSWGQGTQVTVSS	low polyreactivity
QVQLVESGGGLVQAGGSIRLSCAASGSTFPGNAMGWYRQAPGKERELVASISGGGDSTYYADSVKGRFTISRDNAKNTVYLQMNSLKPEDTAVYYCAADTQGSVRPGYDYWGQGTQVTVSS	low polyreactivity
QVQLVESGGGLVQAGGSLRLSCAASGRTFRGYSMGWYRQAPGKERELVAAISTNGGSTRYADSVKGRFTISRDNSKNTVYLQMNSLKPEDTAVYYCARRDYWGQGTQVTVSS	high polyreactivity
QVQLVESGGGLVQAGGSLRLSCAATGSIFQGNVMGWYRPAPGKERELVAGISSSGGRTYYADSVKGRFTISRDNAKNTVYLQMNSLIPEDTAVYYCNAVPSNRQLDYDYWGQGTLVTVSS	high polyreactivity
QVQLVESGGGLVQAGGSLRLSCAASGSIFDVNPMGWYRQAPGKERELVAAISQRGTRTYYADSVKGRFTISRDNAKNTVYLQMNSLKPEDTAVYSCNRGGWRQYDSWGQGTQVTVSS	high polyreactivity
QVQLVESGGGLVQAGGSLRLSCAATGSTFDNYAMGWYRQAHGKERELVADITWSGGSTYYADSVKGRFTISRDNAKNTVYLQMNSLKPEDTAVYYCNTAGYYTKYDYWGQGTQVTVSS	low polyreactivity
